Source: patent US8642729B2, “Opiorphin peptide derivatives as potent inhibitors of enkephalin-degrading ectopeptidases” (Institut Pasteur, priority 2008, dated 2014)
Blank lines part the entries; values can stand above or below the molecule they belong to. Non-standard residues stand in square brackets, D forms with d. No end group written: not given here. 12Ado = NCCCCCCCCCCCC(=O)O; Ahx = NCCCCCC(=O)O

Experiments:
[1] = molecular target: T1, recombinant human AP-N (Homo sapiens, UniProt P15144); assay: AP-N-ectopeptidase activity, Ala-Mca substrate; type: biochemical; conditions: for inhibitory potency towards hAP-N as compared to Opiorphin-QRFSR native peptide (in words): relative to native peptide
T1 construct: devoid of their respective N-terminal cytosol and transmembrane segment; purchased R&D Systems
T1 sequence (P15144 33-967 limits assumed): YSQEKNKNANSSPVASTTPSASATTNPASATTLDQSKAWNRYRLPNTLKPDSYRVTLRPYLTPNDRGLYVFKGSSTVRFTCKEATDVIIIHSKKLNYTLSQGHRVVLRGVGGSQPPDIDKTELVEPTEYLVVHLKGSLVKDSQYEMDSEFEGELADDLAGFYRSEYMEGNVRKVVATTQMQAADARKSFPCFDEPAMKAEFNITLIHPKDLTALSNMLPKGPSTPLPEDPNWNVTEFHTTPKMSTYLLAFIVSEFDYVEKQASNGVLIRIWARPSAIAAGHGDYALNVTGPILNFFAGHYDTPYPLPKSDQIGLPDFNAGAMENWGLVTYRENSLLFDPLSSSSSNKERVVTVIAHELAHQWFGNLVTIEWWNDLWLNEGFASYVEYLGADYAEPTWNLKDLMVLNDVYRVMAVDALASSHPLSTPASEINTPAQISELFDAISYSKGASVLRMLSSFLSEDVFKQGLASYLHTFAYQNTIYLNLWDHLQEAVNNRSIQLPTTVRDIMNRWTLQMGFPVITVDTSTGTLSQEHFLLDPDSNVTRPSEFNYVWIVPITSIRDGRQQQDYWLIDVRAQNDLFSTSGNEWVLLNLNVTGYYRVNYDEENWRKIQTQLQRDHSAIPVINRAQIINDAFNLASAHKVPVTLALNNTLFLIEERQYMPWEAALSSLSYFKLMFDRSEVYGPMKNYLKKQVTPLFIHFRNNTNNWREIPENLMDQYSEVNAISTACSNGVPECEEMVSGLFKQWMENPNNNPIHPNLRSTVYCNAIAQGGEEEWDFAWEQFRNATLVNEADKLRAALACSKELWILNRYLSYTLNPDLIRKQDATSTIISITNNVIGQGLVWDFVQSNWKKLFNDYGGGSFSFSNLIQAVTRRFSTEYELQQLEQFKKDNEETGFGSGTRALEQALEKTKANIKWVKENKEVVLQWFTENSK
Protocol: Formal kinetic analysis was performed for each assay using real-time fluorescence monitoring of specific substrate hydrolysis.
Recombinant human NEP and recombinant human AP-N (devoid of their respective N-terminal cytosol and transmembrane segment) that were purchased from R&D Systems, were used as pure source of peptidase.
FRET is the distance-dependant transfer of energy from a donor fluorophore (Abz=ortho-aminobenzoyl or Mca=7-methoxycoumarin-4-yl-acetyl) to an acceptor fluorophore (DnpOH=2,4-dinitrophenyl or EDDnp=2,4-dinitrophenyl ethylenediamine). • L-alanine-Mca, Ala-Mca, a fluorogenic substrate for measuring aminopeptidase activity was purchased from Sigma.
(§1) According to conditions of initial velocity measurement: the time, pH and temperature of incubation as well as enzyme and substrate concentrations were defined for each assay. Hydrolysis of substrates was measured by real-time monitoring their metabolism rate by the two peptidases in the presence and absence of tested inhibitory compound (concentrations ranging from 1 to 50 μM). These were added to the preincubation medium. The background rate of substrate autolysis representing the fluorescent signal obtained in the absence of enzyme was subtracted to calculate the initial velocities in RFU (Relative Fluorescent Unit)/min.
Measurement of AP-N-Ectopeptidase Activity Using Ala-Mca Substrate.
Using black half-area 96 well microplate the standard reaction consisted of enzyme (4 ng) in 100 mM Tris-HCl pH 7.0 (100 μl final volume).
(§2) Compounds were tested in triplicate at 50 μM final concentration.

[2] = molecular target: T2, human NEP (Homo sapiens, UniProt P08473); assay: Screening of Opiorphin peptide-derivatives on hNEP (endopeptidase and carboxydipeptidase activities); type: biochemical; conditions: for inhibitory preference / dual inhibition, human NEP versus human AP-N (in words): hNEP endopeptidase and carboxydipeptidase activities versus hAP-N; for inhibitory potency towards human NEP (in words): screening, 50 μM final concentration; for inhibitory potency towards hNEP as compared to Opiorphin-QRFSR native peptide (in words): relative to native peptide
T2 construct: devoid of their respective N-terminal cytosol and transmembrane segment; purchased R&D Systems
T2 sequence (P08473 52-750 limits assumed): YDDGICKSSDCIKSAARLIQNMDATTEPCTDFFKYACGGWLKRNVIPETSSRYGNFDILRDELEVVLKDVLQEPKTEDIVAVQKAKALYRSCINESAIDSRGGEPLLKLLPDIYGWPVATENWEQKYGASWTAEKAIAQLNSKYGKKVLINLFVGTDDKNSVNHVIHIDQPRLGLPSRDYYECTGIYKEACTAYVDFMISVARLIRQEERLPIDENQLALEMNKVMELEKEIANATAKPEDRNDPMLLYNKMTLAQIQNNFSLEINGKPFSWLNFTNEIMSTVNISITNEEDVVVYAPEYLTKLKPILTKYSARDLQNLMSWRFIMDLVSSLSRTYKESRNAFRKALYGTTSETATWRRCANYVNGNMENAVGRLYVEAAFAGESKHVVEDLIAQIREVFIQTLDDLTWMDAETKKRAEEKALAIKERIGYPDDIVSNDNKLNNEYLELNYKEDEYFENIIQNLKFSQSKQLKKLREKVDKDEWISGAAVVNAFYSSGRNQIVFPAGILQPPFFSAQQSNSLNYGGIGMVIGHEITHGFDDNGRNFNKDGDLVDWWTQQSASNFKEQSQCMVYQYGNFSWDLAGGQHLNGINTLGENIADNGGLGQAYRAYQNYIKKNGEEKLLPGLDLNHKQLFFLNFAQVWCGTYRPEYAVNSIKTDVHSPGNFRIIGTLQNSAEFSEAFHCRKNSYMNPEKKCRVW
Protocol: as §1
([…] successive measures) by using a fluorimeter microplate reader (monochromator Infinite 200-Tecan) at 320 nm and 420 nm excitation and emission wavelengths, respectively.
Using black half-area 96 well microplate, the standard reaction consisted of enzyme (2.5 ng) in 100 mM Tris-HCl pH 6.5 containing 50 mM NaCl (100 μl final volume). The substrate (4 μM final concentration) was added after preincubation for 10 min and the kinetics of appearance of the fluorescent signal (RFU) was directly analyzed for 40 min at 28° C. (2.3 min-interval successive measures) by using the fluorimeter reader at 320 nm excitation and 420 nm emission wavelengths.
In addition, the intramolecularly quenched fluorogenic peptide, Mca-BK2 (10 μM), was submitted to hydrolysis by 5 ng rhNEP under the same experimental conditions as those described behind.
as §2

[3] = molecular target: T3, membrane-bound human NEP expressed by LNCaP epithelial cells (Homo sapiens, UniProt P08473); assay: Substance P cleavage by membrane-bound hNEP (human cell membranes); type: biochemical; conditions: fold increase, same test
T3 construct: endogenous in cells; host or cells: LNCaP epithelial cells (membranes)
T3 sequence (P08473 whole entry): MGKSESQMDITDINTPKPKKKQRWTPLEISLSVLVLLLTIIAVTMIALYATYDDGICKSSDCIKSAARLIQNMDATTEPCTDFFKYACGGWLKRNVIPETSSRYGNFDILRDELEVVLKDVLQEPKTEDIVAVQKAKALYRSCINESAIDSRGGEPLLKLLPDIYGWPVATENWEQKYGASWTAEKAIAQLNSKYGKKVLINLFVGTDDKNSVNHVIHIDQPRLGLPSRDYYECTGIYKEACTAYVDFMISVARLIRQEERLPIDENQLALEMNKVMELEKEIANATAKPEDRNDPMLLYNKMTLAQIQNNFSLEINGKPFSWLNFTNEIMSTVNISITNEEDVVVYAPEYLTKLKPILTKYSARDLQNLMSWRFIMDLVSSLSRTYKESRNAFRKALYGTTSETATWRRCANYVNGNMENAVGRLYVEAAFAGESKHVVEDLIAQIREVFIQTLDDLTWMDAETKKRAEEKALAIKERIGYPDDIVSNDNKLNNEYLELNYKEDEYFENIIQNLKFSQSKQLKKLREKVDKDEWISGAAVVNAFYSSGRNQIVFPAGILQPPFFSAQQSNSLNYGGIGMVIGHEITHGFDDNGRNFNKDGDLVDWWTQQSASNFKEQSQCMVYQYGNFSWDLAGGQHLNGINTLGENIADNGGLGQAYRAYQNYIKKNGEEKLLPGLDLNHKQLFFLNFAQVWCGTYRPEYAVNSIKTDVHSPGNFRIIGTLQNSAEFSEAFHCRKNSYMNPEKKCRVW

[4] = molecular target: Recombinant human NEP (neutral endopeptidase, EC 3.4.24.11), devoid of its N-terminal cytosol and … (human, UniProt P08473 52-750); assay: cell-based or functional assay
Sequence of Recombinant human NEP (neutral endopeptidase, EC 3.4.24.11), devoid of its N-terminal cytosol and … (P08473 52-750): as the sequence (P08473 52-750 limits assumed) above

[5] = molecular target: T4, Recombinant human AP-N (aminopeptidase N, EC 3.4.11.2), devoid of its N-terminal cytosol and transmembrane … (human, UniProt P15144 33-967); assay: cell-based or functional assay
T4 sequence (P15144 33-967): as the sequence (P15144 33-967 limits assumed) above

[6] = molecular target: T4, Recombinant human AP-N (aminopeptidase …); assay: cell-based or functional assay; remark: listed apart in the source

Molecule: QHNPR
- inhibitory potency towards hAP-N as compared to Opiorphin-QRFSR native peptide (in words) [1]: equivalent inhibitory potency
- inhibitory preference / dual inhibition, human NEP versus human AP-N (in words) [2]: inhibitory preference for human AP-N
- inhibitory potency towards hNEP as compared to Opiorphin-QRFSR native peptide (in words) [2]: weak inhibitory potency
- inhibitory potency towards human NEP (in words) [2]: weak inhibitory potency

Molecule: CCCCCCCC(=O)OC[C@H](NC(=O)[C@H](Cc1ccccc1)NC(=O)[C@H](CCCNC(=N)N)NC(=O)[C@H](CCC(N)=O)NC(=O)CCCCCCNC(=O)[C@@H](N)CS)C(=O)N[C@@H](CCCNC(=N)N)C(=O)O [C-[PE6]-QRFS[O-C8]R, C—(—HN—(CH2)6—CO—)-QRF—S(O-octanoyl)-R]
- increase inhibitory potency compared to Opiorphin native peptide, Substance P test [3]: at least 5 fold

Molecule: N=C(N)NCCC[C@H](NC(=O)[C@H](CO)NC(=O)[C@H](Cc1ccccc1)NC(=O)[C@H](CCCNC(=N)N)NC(=O)[C@H](CCC(N)=O)NC(=O)[C@@H](N)CS)C(=O)O [CQRFSR]
- reinforced inhibitory potency towards hNEP compared to QRFSR native peptide ([2]; fold increase): 5 fold
- inhibitory preference / dual inhibition, human NEP versus human AP-N (in words) [2]: potent dual inhibitors

B1: NH2-C-(C6-polyethylene)QRFSR-COOH (peptide)
peptide: H-C[Ahx]QRFSR-OH
- IC50, µM towards hNEP-Endopeptidase (Abz-dR-G-L-EDDnp cleavage) [4]: 40 µM
- IC50, µM towards hAP-N (Ala-AMC cleavage) [5]: 0.8 µM

B2: NH2-C-(C12-polyethylene)QRFSR-COOH (peptide)
peptide: H-C[12Ado]QRFSR-OH
- IC50, µM towards hAP-N (Ala-AMC cleavage) [5]: 0.8 µM

B3: NH2-QKFSR-COOH (peptide)
peptide: H-QKFSR-OH
- fold decrease in inhibitory potency compared to Opiorphin-QRFSR native peptide [6]: > 10 fold

B4: NH2-QRFSK-COOH (peptide)
peptide: H-QRFSK-OH
- fold decrease in inhibitory potency compared to Opiorphin-QRFSR native peptide [6]: 10 fold

Now from value to molecule, other results behind:

- inhibitory preference / dual inhibition, human NEP versus human AP-N (in words) [2]: preference for AP-N activity
Molecule: dR-dS-dF-dR-dQ ([dR][dS][dF][dR][dQ]) [NH2-dRdSdFdRdQ-COOH]
- inhibitory potency towards human AP-N (in words) ([1]; screening, 50 μM final concentration): did not display significant inhibitory activity
- inhibitory potency towards human NEP (in words) [2]: did not display significant inhibitory activity

- inhibitory potency towards hAP-N as compared to Opiorphin-QRFSR native peptide (in words) [1]: equivalent inhibitory potency
- inhibitory preference / dual inhibition, human NEP versus human AP-N (in words) [2]: inhibitory preference for human AP-N
- inhibitory potency towards hNEP as compared to Opiorphin-QRFSR native peptide (in words) [2]: weak inhibitory potency
- inhibitory potency towards human NEP (in words) [2]: weak inhibitory potency
Molecule: QRGPR (H-QRGPR-OH)

- inhibitory potency towards hNEP as compared to Opiorphin-QRFSR native peptide (in words) [2]: light reduction in inhibitory potency
Molecule: QKFSR

- inhibitory preference / dual inhibition, human NEP versus human AP-N (in words) ([2]; listed as NH2-Y(PE12)QRFSR—COOH): potent dual inhibitors
Molecule: N=C(N)NCCC[C@H](NC(=O)[C@H](CO)NC(=O)[C@H](Cc1ccccc1)NC(=O)[C@H](CCCNC(=N)N)NC(=O)[C@H](CCC(N)=O)NC(=O)CCCCCCCCCCCCNC(=O)[C@@H](N)Cc1ccc(O)cc1)C(=O)O [Y-[PE12]QRFSR, Y—(—HN—(CH2)12—CO—)-QRFSR]
- inhibitory preference / dual inhibition, human NEP versus human AP-N (in words) ([2]; listed as NH2-Y—(C12-polyethylene)QRFSR—COOH): inhibitory preference for human NEP endopeptidase activity
- inhibitory preference / dual inhibition, human NEP versus human AP-N (in words) ([2]; listed as Y—(C12-polyethylene)QRFSR): inhibitory preference for human NEP endopeptidase activity

- increase inhibitory potency towards hNEP-Endo and CarboxyDi-peptidase activities compared to CQRFSR monomer peptide ([2]; fold increase): at least 2 fold
Molecule: N=C(N)NCCC[C@H](NC(=O)[C@H](CO)NC(=O)[C@H](Cc1ccccc1)NC(=O)[C@H](CCCNC(=N)N)NC(=O)[C@H](CCC(N)=O)NC(=O)[C@@H](N)CSSC[C@H](N)C(=O)N[C@@H](CCC(N)=O)C(=O)N[C@@H](CCCNC(=N)N)C(=O)N[C@@H](Cc1ccccc1)C(=O)N[C@@H](CO)C(=O)N[C@@H](CCCNC(=N)N)C(=O)O)C(=O)O [[CQRFSR]2]

- inhibitory potency towards hAP-N as compared to Opiorphin-QRFSR native peptide (in words) [1]: equivalent inhibitory potency
- inhibitory preference / dual inhibition, human NEP versus human AP-N (in words) [2]: inhibitory preference for human AP-N
- inhibitory potency towards hNEP as compared to Opiorphin-QRFSR native peptide (in words) [2]: weak inhibitory potency
- inhibitory potency towards human NEP (in words) [2]: weak inhibitory potency
Molecule: QRFPR

- inhibitory potency towards hNEP as compared to Opiorphin-QRFSR native peptide (in words) [2]: equivalent inhibitory potency
Molecule: QRFSK (H-QRFSK-OH)
